# Measured values reported in patent EP1960427B1.
# Tests used:
# [1] = molecular target: dimer-IgG (Wright et al.), small immune complex; assay: flow cytometry, inhibition of dimer-IgG binding to human neutrophils
# [2] = molecular target: heat-aggregated IgG (HAGG); assay: BIAcore equilibrium binding over immobilised HAGG; two-binding site model, KD2
# [3] = molecular target: human IgG monomer (Sandoglobulin, Novartis) (human); assay: BIAcore equilibrium binding over immobilised human IgG monomer; two-binding site model, KD1
# [4] = molecular target: human IgG monomer (Sandoglobulin, Novartis) (human); assay: BIAcore equilibrium binding over immobilised human IgG monomer; two-binding site model, KD2
# [5] = molecular target: heat-aggregated IgG (HAGG); assay: flow cytometry, block of HAGG binding to IIA1.6 cells with human FcγRIIb
# [6] = molecular target: heat-aggregated IgG (HAGG); assay: BIAcore equilibrium binding over immobilised HAGG; two-binding site model, KD1
# [7] = molecular target: dimer-IgG (Wright et al.), small immune complex; assay: flow cytometry, inhibition of dimer-IgG binding to human neutrophils from two individuals
# [8] = molecular target: heat-aggregated IgG (HAGG); assay: cell-based or functional assay
# [9] = molecular target: immune complexes consisting of ovalbumin and anti-ovalbumin antibody (OVA ICs); assay: cell-based or functional assay
# [10] = molecular target: human IgG monomer (Sandoglobulin, Novartis) (human); assay: BIAcore equilibrium binding over immobilised IgG
# [11] = molecular target: heat-aggregated IgG (HAGG); assay: BIAcore equilibrium binding over immobilised HAGG
# [12] = molecular target: human IgG monomer (Sandoglobulin, Novartis) (human); assay: BIAcore equilibrium binding, receptor injected over immobilised IgG; single-binding site
# [13] = molecular target: heat-aggregated IgG (HAGG); assay: BIAcore equilibrium binding, receptor injected over immobilised HAGG; single-binding site
IC50 [1] [µg/mL],fold more active than rsFcγRIIa monomer [1] [fold],Kd [2] [nM],Kd [3] [nM],Kd [4] [nM],IC50 [5] [µg/mL],fold more potent than the monomer protein [5] [fold],Kd [6] [nM],IC50 [7] [µg/mL],IC50 of HAGG-induced platelet activation (CD41 and CD62P positive platelets) [8] [µg/mL],"fold potency over rsFcγRIIa monomer, HAGG-induced platelet activation [8] [fold]",IC50 of TNF-α release from MC/9 cells induced by OVA ICs [9] [µg/mL],"fold potency over rsFcγRIIa monomer, TNF-α release from MC/9 cells [9] [fold]",fold greater avidity than the monomeric receptor [10] [fold],fold lesser KD1 than the KD of monomeric rsFcγRIIa [11] [fold],Kd [12] [nM],Kd [13] [nM],Substance
1.1,10,99,3.2,100,0.0039,> 500,2.73,0.9 to 1.1,3.9,5,2.1,8,300,300,,,"recombinant soluble FcγRIIa head to tail homodimer (rsFcγRIIa dimer), construct of Figure 1 (pBAR397/pBAR427) (from UniProt P12318 34-215; P12318 36-215) (receptor)"
10.5,,,,,,,,,,,,,,,1700,1050,"recombinant soluble FcγRIIa monomer (rsFcγRIIa monomer), expressed in HEK 293E cells from pBAR426 (from UniProt P12318 34-217) (receptor)"
,,,,,2.08,,,,20.9,,17.7,,,,,,"rsFcγRIIa monomer (R&D Systems, Cat # 1330-CD/CF) (from UniProt P12318 36-218) (receptor)"
